In patent publication US20240052042A1 (Novartis, published 2024):
Where two headings read alike, the source gives them in different places.

Tests used:
[1] = target: T1, human NPR1 on CHO-K1 cells in the presence of ANP (human, UniProt P01160 124-151); experiment: flow cytometry (FL2-H) on hNPR1 CHO-K1 cells with saturating ANP, IgG titrated; control parental CHO-K1 [panel YY02]
T1 construct: also called hNPR1 CHO K1 + 100 nM ANP
T1 sequence: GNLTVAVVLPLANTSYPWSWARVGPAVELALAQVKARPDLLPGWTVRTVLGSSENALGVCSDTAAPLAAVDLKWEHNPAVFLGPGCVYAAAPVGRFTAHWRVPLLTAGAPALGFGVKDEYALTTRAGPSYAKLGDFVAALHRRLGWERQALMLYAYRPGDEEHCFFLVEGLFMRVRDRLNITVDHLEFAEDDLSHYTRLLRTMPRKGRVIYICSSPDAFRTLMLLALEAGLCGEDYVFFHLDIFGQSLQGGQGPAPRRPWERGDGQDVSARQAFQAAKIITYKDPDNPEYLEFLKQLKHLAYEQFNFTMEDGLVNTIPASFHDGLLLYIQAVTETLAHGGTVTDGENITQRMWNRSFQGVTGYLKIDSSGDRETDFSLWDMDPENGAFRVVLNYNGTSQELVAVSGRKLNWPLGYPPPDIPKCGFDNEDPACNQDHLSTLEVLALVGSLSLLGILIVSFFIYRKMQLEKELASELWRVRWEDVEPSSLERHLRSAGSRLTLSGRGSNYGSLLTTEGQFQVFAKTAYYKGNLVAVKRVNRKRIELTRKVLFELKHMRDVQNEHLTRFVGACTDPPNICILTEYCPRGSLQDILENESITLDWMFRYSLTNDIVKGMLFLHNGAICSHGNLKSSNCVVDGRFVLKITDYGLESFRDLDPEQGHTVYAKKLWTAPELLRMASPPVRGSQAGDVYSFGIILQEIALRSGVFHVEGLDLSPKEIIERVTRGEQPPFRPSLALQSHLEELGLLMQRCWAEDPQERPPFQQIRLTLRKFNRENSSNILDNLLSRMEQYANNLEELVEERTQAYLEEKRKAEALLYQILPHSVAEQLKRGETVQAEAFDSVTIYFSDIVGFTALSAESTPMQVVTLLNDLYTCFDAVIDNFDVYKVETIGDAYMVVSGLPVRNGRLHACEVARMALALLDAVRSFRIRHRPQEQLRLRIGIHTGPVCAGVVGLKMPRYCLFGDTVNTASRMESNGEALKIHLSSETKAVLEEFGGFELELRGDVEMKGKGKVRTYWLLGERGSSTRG
T1 sequence (peptide): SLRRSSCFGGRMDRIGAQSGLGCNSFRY

hNPR1-ANP complex [2] = target: T2, hNPR1-ANP complex (human, UniProt P01160 124-151, limits assumed); experiment: ELISA, IgG titrated on coated antigen with ANP (250 fold molar excess), fluorescence [Cont.]
T2 construct: hNPR1 antigen in the presence of ANP; also called hNPR1 + 100 nM ANP
T2 sequence: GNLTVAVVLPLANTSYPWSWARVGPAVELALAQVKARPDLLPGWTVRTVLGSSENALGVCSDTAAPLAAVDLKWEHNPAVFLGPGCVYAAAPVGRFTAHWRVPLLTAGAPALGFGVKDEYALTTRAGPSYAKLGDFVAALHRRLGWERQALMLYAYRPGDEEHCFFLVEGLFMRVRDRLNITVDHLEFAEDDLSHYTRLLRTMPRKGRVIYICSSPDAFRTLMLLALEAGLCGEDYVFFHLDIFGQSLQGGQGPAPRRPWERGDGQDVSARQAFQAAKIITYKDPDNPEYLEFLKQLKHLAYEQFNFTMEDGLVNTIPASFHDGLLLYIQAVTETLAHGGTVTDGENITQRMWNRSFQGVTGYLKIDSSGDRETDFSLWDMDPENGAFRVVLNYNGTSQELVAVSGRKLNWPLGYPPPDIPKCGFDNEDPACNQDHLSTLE
T2 sequence (peptide): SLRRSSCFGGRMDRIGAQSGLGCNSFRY

rNPR1-ANP complex [3] = target: T3, rNPR1-ANP complex (rat, UniProt P01160 124-151 (human entry), limits assumed); experiment: as above
T3 construct: rNPR1 antigen in the presence of ANP; also called rNPR1 + 100 nM ANP
T3 sequence: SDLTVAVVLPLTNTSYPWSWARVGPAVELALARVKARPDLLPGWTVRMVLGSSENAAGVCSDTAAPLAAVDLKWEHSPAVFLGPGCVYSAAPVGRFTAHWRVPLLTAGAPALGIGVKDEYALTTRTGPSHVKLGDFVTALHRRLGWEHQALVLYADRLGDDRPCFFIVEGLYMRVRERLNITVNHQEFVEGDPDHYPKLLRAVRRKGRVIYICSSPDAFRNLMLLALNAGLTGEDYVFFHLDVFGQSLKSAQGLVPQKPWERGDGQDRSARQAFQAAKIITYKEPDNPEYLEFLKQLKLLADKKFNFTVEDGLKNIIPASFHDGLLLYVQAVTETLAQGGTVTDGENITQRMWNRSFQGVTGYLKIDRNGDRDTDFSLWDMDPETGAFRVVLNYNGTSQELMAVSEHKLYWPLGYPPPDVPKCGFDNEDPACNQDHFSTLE
T3 sequence (peptide): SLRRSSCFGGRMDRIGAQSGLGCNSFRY

[4] = target: T4, human NPR1 on CHO-K1 cells (human, UniProt P16066 33-1061); experiment: flow cytometry (FL2-H) on hNPR1 CHO-K1 cells without ANP, IgG titrated; control parental CHO-K1 [panel YY02]
T4 construct: also called hNPR1 CHO K1; human NPR1 expressing CHO-K1 cells
T4 sequence: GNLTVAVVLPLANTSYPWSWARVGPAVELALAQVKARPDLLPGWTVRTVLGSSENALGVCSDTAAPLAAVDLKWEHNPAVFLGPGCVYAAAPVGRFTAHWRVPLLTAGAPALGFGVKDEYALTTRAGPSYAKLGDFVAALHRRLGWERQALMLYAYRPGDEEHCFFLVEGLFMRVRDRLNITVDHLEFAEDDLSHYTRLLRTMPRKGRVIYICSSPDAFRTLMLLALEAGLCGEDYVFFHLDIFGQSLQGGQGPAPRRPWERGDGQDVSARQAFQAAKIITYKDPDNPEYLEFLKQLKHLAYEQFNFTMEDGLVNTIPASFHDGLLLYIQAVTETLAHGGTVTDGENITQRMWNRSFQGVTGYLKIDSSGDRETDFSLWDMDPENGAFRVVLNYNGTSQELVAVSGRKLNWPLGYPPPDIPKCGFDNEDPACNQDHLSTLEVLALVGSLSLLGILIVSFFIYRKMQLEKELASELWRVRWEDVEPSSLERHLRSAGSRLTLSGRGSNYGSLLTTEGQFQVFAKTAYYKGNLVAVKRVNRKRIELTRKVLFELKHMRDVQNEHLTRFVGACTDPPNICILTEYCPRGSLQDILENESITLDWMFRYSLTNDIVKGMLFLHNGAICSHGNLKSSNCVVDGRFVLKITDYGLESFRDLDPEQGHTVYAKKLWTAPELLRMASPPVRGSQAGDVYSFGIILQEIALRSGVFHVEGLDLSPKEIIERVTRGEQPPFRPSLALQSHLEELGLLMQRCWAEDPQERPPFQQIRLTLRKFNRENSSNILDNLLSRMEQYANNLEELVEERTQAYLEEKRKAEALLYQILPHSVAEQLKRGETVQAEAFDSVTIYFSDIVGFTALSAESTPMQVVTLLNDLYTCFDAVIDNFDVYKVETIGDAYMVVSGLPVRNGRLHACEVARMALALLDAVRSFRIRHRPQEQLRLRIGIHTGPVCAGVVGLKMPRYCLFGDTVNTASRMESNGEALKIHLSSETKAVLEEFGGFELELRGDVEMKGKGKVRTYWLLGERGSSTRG

[5] = target: T5, human Natriuretic Peptide Receptor 1 (hNPR1) (human, UniProt P16066 33-473, limits assumed); experiment: ELISA, IgG titrated on coated antigen, fluorescence [Cont.]
T5 construct: pannings used NPR1-hFc; also called NPR1-hFc
T5 sequence: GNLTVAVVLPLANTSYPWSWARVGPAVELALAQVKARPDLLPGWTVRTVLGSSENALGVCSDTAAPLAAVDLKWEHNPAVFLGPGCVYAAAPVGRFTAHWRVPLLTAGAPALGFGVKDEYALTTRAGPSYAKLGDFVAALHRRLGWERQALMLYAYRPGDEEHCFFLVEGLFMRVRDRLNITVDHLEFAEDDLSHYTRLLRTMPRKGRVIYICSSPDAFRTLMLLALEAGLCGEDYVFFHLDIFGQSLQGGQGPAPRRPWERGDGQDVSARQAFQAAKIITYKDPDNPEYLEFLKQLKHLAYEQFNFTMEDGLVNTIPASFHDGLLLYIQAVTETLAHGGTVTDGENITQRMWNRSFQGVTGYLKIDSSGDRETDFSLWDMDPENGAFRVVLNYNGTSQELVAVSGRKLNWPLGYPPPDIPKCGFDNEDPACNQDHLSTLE

[6] = target: T1, human NPR1 on CHO-K1 cells in the …; experiment: flow cytometry (FL2-H) on hNPR1 CHO-K1 cells with saturating ANP, IgG titrated; control parental CHO-K1 [panel YY03]
hNPR1-ANP complex [7] = target: T2, hNPR1-ANP complex; experiment: ELISA, IgG titrated on coated antigen with ANP (250 fold molar excess), fluorescence [Cont.]; remark: listed apart in the source
rNPR1-ANP complex [8] = target: T3, rNPR1-ANP complex; experiment: as above; remark: listed apart in the source
hNPR1-ANP complex [9] = target: T2, hNPR1-ANP complex; experiment: ELISA, 1 µM IgG; set-up: unit not given here
rNPR1-ANP complex [10] = target: T3, rNPR1-ANP complex; experiment: ELISA, 1 µM IgG; set-up: unit not given here
[11] = target: T1, human NPR1 on CHO-K1 cells in the …; experiment: flow cytometry, hNPR1 CHO-K1 cells, IgG
[12] = target: T1, human NPR1 on CHO-K1 cells in the …; experiment: flow cytometry (FL2-H) on hNPR1 CHO-K1 cells with saturating ANP, IgG titrated; control parental CHO-K1 [Cont.), panel YY04]

B1: YY02 (IgG format) (antibody, V domains shown)
VH: EVQLVESGGGLVKPGGSLRLSCAASGFTFSSYSMNWVRQAPGKGLEWVSSISSSSSYIYYADSVKGRFTISRDNAKNSLYLQMNSLRAEDTAVYYCARSGYRGVYGFDYWGQGTLVTVSS
VL: DIQMTQSPSSVSASVGDRVTITCRASQGISSWLAWYQQKPGKAPKLLIYAASSLQSGVPSRFSGSGSGTDFTLTISSLQPEDFATYYCQQYYHSPLTFGQGTKVEIKR
notes: IgG format; also called YY02_LALA
[1]
  EC50 (read off the curve): ~1 nM
hNPR1-ANP complex [2]
  EC50 (read off the curve): ~0.8 nM
rNPR1-ANP complex [3]
  EC50 (read off the curve): ~0.3 nM
[4]
  EC50 (read off the curve): ~200 nM

B2: YY03 (IgG format) (antibody, V domains shown)
VH: EVQLLESGGGLVQPGGSLRLSCAASGFTFSSYAISWVRQAPGKGLEWVSAISGSGGSTYYAESVKGRFTISRDNSKNTLYLQMNSLRAEDTAVYYCARESGYVYYLKFDYWGQGTLVTVSS
VL: DIQMTQSPSSLSASVGDRVTITCRASQSISSYLNWYQQKPGKAPKLLIYAASSLQSGVPSRFSGSGSGTDFTLTISSLQPEDFATYYCQQHVRVPITFGQGTKVEIKR
notes: IgG format; also called YY03_LALA
[5]
  binding result: binds
[6]
  EC50 (read off the curve): ~2 nM
hNPR1-ANP complex [7]
  EC50 (read off the curve): ~1 nM
rNPR1-ANP complex [8]
  EC50 (read off the curve): ~0.2 nM

B3: YY04 (IgG format) (antibody, V domains shown)
VH: EVQLVESGGGLVKPGGSLRLSCAASGFTFSNYWISWVRQAPGKGLEWVGRIKSKTYGGTTDYAEPVKGRFTISRDDSKNTLYLQMNSLKTEDTAVYYCAREKYSIRARGHGDYGFDVWGQGTLVTVSS
VL: DIQMTQSPSSLSASVGDRVTITCRASQGISNYLAWYQQKPGKVPKLLIYAASTLQSGVPSRFSGSGSGTDFTLTISSLQPEDVATYYCQQGYHAPFTFGQGTKVEIKR
notes: also called YY04_LALA
hNPR1-ANP complex [9]
  ELISA binding at 1 µM IgG: 60
rNPR1-ANP complex [10]
  ELISA binding at 1 µM IgG: 54
[11]
  flow cytometry S/BG at 1 µM IgG: 33 S/BG
[12]
  EC50 (read off the curve): ~0.2 nM
